Assays:
[1] = biological target: human TSH receptor (wild type), displayed on CHO-Rluc cells (human) (UniProt P16473); test: cell-based or functional assay
[2] = biological target: chimeric hTSH/rLH-R receptor (RMc4), displayed on CHO-RMc4luc cells (human TSH receptor with a segment of rat LH receptor); test: cell-based or functional assay

Row | Ratio of Signal/Negative, luciferase reporter, FSH 364 mIU/ml on CHO-Rluc cells [1] | luciferase RLU, FSH 364 mIU/ml on CHO-Rluc cells [1] [RLU] | Ratio of Signal/Negative, luciferase reporter, FSH 364 mIU/ml on CHO-Mc4luc cells [2] | luciferase RLU, FSH 364 mIU/ml on CHO-RMc4luc cells [2] [RLU] | Ratio of Signal/Negative, luciferase reporter, LH 455 mIU/ml on CHO-Rluc cells [1] | luciferase RLU, LH 455 mIU/ml on CHO-Rluc cells [1] [RLU] | Ratio of Signal/Negative, luciferase reporter, LH 455 mIU/ml on CHO-Mc4luc cells [2] | luciferase RLU, LH 455 mIU/ml on CHO-RMc4luc cells [2] [RLU] | Substance
1 | 0.7 | 728 | 0.6 | 1020 | – | – | – | – | human follicle stimulating hormone (from UniProt P01215 25-116; P01225 19-129) (ligand)
2 | – | – | – | – | 0.8 | 835 | 0.9 | 1560 | human luteinizing hormone (from UniProt P01215 25-116; P01229 21-141) (ligand)
